Experimental data published in IntAct's records for PubMed 18923430.

Target: dnjc3_mouse Dnajc3 (UniProt Q91YW3)
Sequence (Q91YW3 whole entry): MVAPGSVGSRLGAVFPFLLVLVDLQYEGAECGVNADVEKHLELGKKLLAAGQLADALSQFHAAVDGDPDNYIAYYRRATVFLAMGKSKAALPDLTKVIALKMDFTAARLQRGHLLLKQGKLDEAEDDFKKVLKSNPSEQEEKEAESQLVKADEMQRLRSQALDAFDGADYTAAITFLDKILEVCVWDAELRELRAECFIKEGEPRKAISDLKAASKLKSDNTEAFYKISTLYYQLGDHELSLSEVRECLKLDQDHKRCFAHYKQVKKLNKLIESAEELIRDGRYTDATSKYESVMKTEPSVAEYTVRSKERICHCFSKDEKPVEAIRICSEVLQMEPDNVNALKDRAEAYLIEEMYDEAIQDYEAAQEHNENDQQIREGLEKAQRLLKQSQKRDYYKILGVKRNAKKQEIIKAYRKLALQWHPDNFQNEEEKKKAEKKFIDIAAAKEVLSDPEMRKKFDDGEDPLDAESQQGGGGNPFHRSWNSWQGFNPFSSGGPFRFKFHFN

effect of a mutation on the interaction: disrupting interaction
Substance: Endoplasmic reticulum chaperone BiP (Homo sapiens), P11021 E201G
